Data taken from the RNAGym collection of RNA variant scans (doi:10.1101/gr.219683.116).

B1: mRNA-splicing (parent)
chain: AGUUGCUGCUGGGAGCUCCAGCACAGUGAAAUGGACAGAAGGGCAGAGCAA

Variants of: B1
Test: exon inclusion enrichment index; higher = more inclusion; WT1 exon 5 minigene, HEK293

| Variant | exon inclusion enrichment index |
| --- | --- |
| AGUUCUUCUCGGGAGCUCCUUCACAGUGAAAUGGACAGAAGGGCAGAGCAA | 1.12 |
| AGUUCUUCUCGGGAGCUCCUACACAGUGAAAUGGACAGAAGGGCAGAGCAA | 0.91 |
| AGUUCUUCUCGGGAGCUCCUCCACAGUGAAAUGGACAGAAGGGCAGAGCAA | 1.62 |
| AGUUCGCGCCGGGAGCGACAGCACAGUGAAAUGGACAGAAGGGCAGAGCAA | 3.39 |
| AGUUCGCGCCGGGAGCGUCAGCACAGUGAAAUGGACAGAAGGGCAGAGCAA | 3.11 |
| AGUUCGCGCCGGGAGCGGCAGCACAGUGAAAUGGACAGAAGGGCAGAGCAA | 2.48 |
| AGUUCGGCCCGGGAGCUCCAGCACAGUGAAAUGGACAGAAGGGCAGAGCAA | 1.57 |
| AGUUCGGGCCGGGAGCUCCAGCACAGUGAAAUGGACAGAAGGGCAGAGCAA | 1.51 |
| AGUUCGCGCCGGGAGCAUCAGCACAGUGAAAUGGACAGAAGGGCAGAGCAA | 3.37 |
| AGUUCGCGCCGGGAGCAACAGCACAGUGAAAUGGACAGAAGGGCAGAGCAA | 2.9 |
| AGUUCGCGCCGGGAGCAGCAGCACAGUGAAAUGGACAGAAGGGCAGAGCAA | 4.2 |
| AGUUCGCGCCGGGAGCCUCAGCACAGUGAAAUGGACAGAAGGGCAGAGCAA | 3.54 |
| AGUUCGCGCCGGGAGCCACAGCACAGUGAAAUGGACAGAAGGGCAGAGCAA | 3.59 |
| AGUUCGCGCCGGGAGCCGCAGCACAGUGAAAUGGACAGAAGGGCAGAGCAA | 4.56 |
| AGUUCUUCUCGGGAGCUCCAGCCAAGUGAAAUGGACAGAAGGGCAGAGCAA | 2.31 |
| AGUUCUUCUCGGGGUCUCCAGCACAGUGAAAUGGACAGAAGGGCAGAGCAA | 0.546 |
| AGUUCUUCUCGGGGCCUCCAGCACAGUGAAAUGGACAGAAGGGCAGAGCAA | 0.826 |
| AGUUCUUCUCGGGGACUCCAGCACAGUGAAAUGGACAGAAGGGCAGAGCAA | 1.17 |
| AGUUCUUGGCGGGAGCUCCAGCACAGUGAAAUGGACAGAAGGGCAGAGCAA | 1.31 |
| AGUUCGCGCCGGGAGCUCCAGCACAGCCAAAUGGACAGAAGGGCAGAGCAA | 4.03 |
| AGUUCGCGCCGGGAGCUCCAGCACAGCAAAAUGGACAGAAGGGCAGAGCAA | 3.28 |
| AGUUCGCGCCGGGAGCUCCAGCACAGCUAAAUGGACAGAAGGGCAGAGCAA | 2.8 |
| AGUUCGGCUCGGGAGCUCCAGCACAGUGAAAUGGACAGAAGGGCAGAGCAA | 2.15 |
| AGUUCUUCUCGGGAGCUCCAGCACAGUGAAAUGGACAGAAGGGCAGAGCAA | 2.2 |
| AGUUCUUCUAGGGAGCUCCAGCACAGUGAAAUGGACAGAAGGGCAGAGCAA | 0.186 |
| AGUUCGCGCGUGGAGCUCCAGCACAGUGAAAUGGACAGAAGGGCAGAGCAA | 2.66 |

| Variant | exon inclusion enrichment index |
| --- | --- |
| AGUUCGCGCGAGGAGCUCCAGCACAGUGAAAUGGACAGAAGGGCAGAGCAA | 2.98 |
| AGUUCGCGCGCGGAGCUCCAGCACAGUGAAAUGGACAGAAGGGCAGAGCAA | 2.32 |
| AGUUCUUGACGGGAGCUCCAGCACAGUGAAAUGGACAGAAGGGCAGAGCAA | 1.69 |
| AGUUCGCGCCGGGAGCUCCAGCACAGUGAAACUGACAGAAGGGCAGAGCAA | 2.45 |
| AGUUCGCGCCGGGAGCUCCAGCACAGUGAAACCGACAGAAGGGCAGAGCAA | 3.68 |
| AGUUCGCGCCGGGAGCUCCAGCACAGUGAAACAGACAGAAGGGCAGAGCAA | 2.09 |
| AGUUCGCGCCGGGAGCGCCAGCACAGUGAAAUGGACAGAAGGGCAGAGCAA | 1.86 |
| AGUUCGCGCCGGGAGCCCCAGCACAGUGAAAUGGACAGAAGGGCAGAGCAA | 3.43 |
| AGUUCGCGCCGGGAGCACCAGCACAGUGAAAUGGACAGAAGGGCAGAGCAA | 3.8 |
| AGUUCUUAUCGGGAGCUCCAGCACAGUGAAAUGGACAGAAGGGCAGAGCAA | 0.941 |
| AGUUCGGUCCGGGAGCUCCAGCACAGUGAAAUGGACAGAAGGGCAGAGCAA | 1.74 |
| AGUUCUUGCUGGGAGCUCCAGCACAGUGAAAUGGACAGAAGGGCAGAGCAA | 0.0627 |
| AGUUCUUACCGGGAGCUCCAGCACAGUGAAAUGGACAGAAGGGCAGAGCAA | 1.18 |
| AGUUCUUACAGGGAGCUCCAGCACAGUGAAAUGGACAGAAGGGCAGAGCAA | 0.0597 |
| AGUUCUUCUUGGGAGCUCCAGCACAGUGAAAUGGACAGAAGGGCAGAGCAA | 1.16 |
| AGUUCUUCGUGGGAGCUCCAGCACAGUGAAAUGGACAGAAGGGCAGAGCAA | 3.5 |
| AGUUCUUCAUGGGAGCUCCAGCACAGUGAAAUGGACAGAAGGGCAGAGCAA | 1.7 |
| AGUUCGGACCGGGAGCUCCAGCACAGUGAAAUGGACAGAAGGGCAGAGCAA | 2.87 |
| AGUUCGGACAGGGAGCUCCAGCACAGUGAAAUGGACAGAAGGGCAGAGCAA | 0.218 |
| AGUUCUUCGAGGGAGCUCCAGCACAGUGAAAUGGACAGAAGGGCAGAGCAA | 3.12 |
| AGUUCUUCGCGGGAGCUCCAGCACAGUGAAAUGGACAGAAGGGCAGAGCAA | 3.48 |
| AGUUCUUCGGGGGAGCUCCAGCACAGUGAAAUGGACAGAAGGGCAGAGCAA | 3.42 |
| AGUUCUUCAGGGGAGCUCCAGCACAGUGAAAUGGACAGAAGGGCAGAGCAA | 0.812 |
| AGUUCUUCAAGGGAGCUCCAGCACAGUGAAAUGGACAGAAGGGCAGAGCAA | 1.21 |
| AGUUCUUCACGGGAGCUCCAGCACAGUGAAAUGGACAGAAGGGCAGAGCAA | 2.36 |
| AGUUCUUAACGGGAGCUCCAGCACAGUGAAAUGGACAGAAGGGCAGAGCAA | 0.564 |

| Variant | exon inclusion enrichment index |
| --- | --- |
| AGUUCUUCUCGGGGGCUCCAGCACAGUGAAAUGGACAGAAGGGCAGAGCAA | 1.2 |
| AGUUCUUCUCGGGCGCUCCAGCACAGUGAAAUGGACAGAAGGGCAGAGCAA | 1.3 |
| AGUUCUUCUCGGGUGCUCCAGCACAGUGAAAUGGACAGAAGGGCAGAGCAA | 0.661 |
| AGUUCGCGCCGGGAGCUCCAGCACAGUGAAAACGACAGAAGGGCAGAGCAA | 3.67 |
| AGUUCGCGCCGGGAGCUCCAGCACAGUGAAAAUGACAGAAGGGCAGAGCAA | 2.76 |
| AGUUCGCGCCGGGAGCUCCAGCACAGUGAAAAAGACAGAAGGGCAGAGCAA | 2 |
| AGUUCGCGCCGGGAGCUCCAGCACAGGUAAAUGGACAGAAGGGCAGAGCAA | 0.0303 |
| AGUUCGCGCCGGGAGCUCCAGCACAGGAAAAUGGACAGAAGGGCAGAGCAA | 3.58 |
| AGUUCGCGCCGGGAGCUCCAGCACAGGCAAAUGGACAGAAGGGCAGAGCAA | 2.55 |
| AGUUCGCGCGGGGAGCUCCAGCACAGUGAAAUGGACAGAAGGGCAGAGCAA | 1.86 |
| AGUUCUUCUCGGGAGCUCCUGCACAGUGAAAUGGACAGAAGGGCAGAGCAA | 2.17 |
| AGUUCUUCUCGGGAGCUCCCGCACAGUGAAAUGGACAGAAGGGCAGAGCAA | 1.41 |
| AGUUCUUCUCGGGAGCUCCGGCACAGUGAAAUGGACAGAAGGGCAGAGCAA | 2.69 |
| AGUUCGGGAUGGGAGCUCCAGCACAGUGAAAUGGACAGAAGGGCAGAGCAA | 1.02 |
| AGUUCGCGCCGGGAGCUCCAGCACAGUGAAAUGGACAGAAGGGCAGAUCAA | 4.46 |
| AGUUCUUGUCGGGAGCUCCAGCACAGUGAAAUGGACAGAAGGGCAGAGCAA | 1.13 |
| AGUUCUUCCUGGGAGCUCCAGCACAGUGAAAUGGACAGAAGGGCAGAGCAA | 1.8 |
| AGUUCUUCUCGGGAGCUCCCUCACAGUGAAAUGGACAGAAGGGCAGAGCAA | 0.926 |
| AGUUCUUCUCGGGAGCUCCCACACAGUGAAAUGGACAGAAGGGCAGAGCAA | 0.599 |
| AGUUCUUCUCGGGAGCUCCCCCACAGUGAAAUGGACAGAAGGGCAGAGCAA | 0.524 |
| AGUUCGCGCCGGGAGCUCCAGCACAGUGAAAGGGACAGAAGGGCAGAGCAA | 0.601 |
| AGUUCGCGCCGGGAGCUCCAGCACAGUGAAAAGGACAGAAGGGCAGAGCAA | 3.12 |
| AGUUCGCGCCGGGAGCUCCAGCACAGUGAAACGGACAGAAGGGCAGAGCAA | 4.75 |
| AGUUCGCGCCGGGAGCUCCAGCACAGCGAAAUGGACAGAAGGGCAGAGCAA | 4.97 |
| AGUUCGCGCCGGGAGCUCCAGCACAGAGAAAUGGACAGAAGGGCAGAGCAA | 3.66 |
| AGUUCGCGCCGGGAGCUCCAGCACAGGGAAAUGGACAGAAGGGCAGAGCAA | 2.02 |

| Variant | exon inclusion enrichment index |
| --- | --- |
| AGUUCUUCUUAGGAGCUCCAGCACAGUGAAAUGGACAGAAGGGCAGAGCAA | 0.125 |
| AGUUCUUCUUUGGAGCUCCAGCACAGUGAAAUGGACAGAAGGGCAGAGCAA | 0.905 |
| AGUUCUUCUUCGGAGCUCCAGCACAGUGAAAUGGACAGAAGGGCAGAGCAA | 2.09 |
| AGUUCUUCUCGGGAGCUCCGUCACAGUGAAAUGGACAGAAGGGCAGAGCAA | 2.01 |
| AGUUCUUCUCGGGAGCUCCGCCACAGUGAAAUGGACAGAAGGGCAGAGCAA | 1.71 |
| AGUUCUUCUCGGGAGCUCCGACACAGUGAAAUGGACAGAAGGGCAGAGCAA | 2.38 |
| AGUUCUUCUCGGGAGCUCCAGCCCAGUGAAAUGGACAGAAGGGCAGAGCAA | 1.9 |
| AGUUCGCGCCGGGAGCUCCAGCACAGUGAAAGCGACAGAAGGGCAGAGCAA | 3.31 |
| AGUUCGCGCCGGGAGCUCCAGCACAGUGAAAGUGACAGAAGGGCAGAGCAA | 1.88 |
| AGUUCGCGCCGGGAGCUCCAGCACAGUGAAAGAGACAGAAGGGCAGAGCAA | 1.79 |
| AGUUCUUCUCGGGUUCUCCAGCACAGUGAAAUGGACAGAAGGGCAGAGCAA | 0.556 |
| AGUUCUUCUCGGGUACUCCAGCACAGUGAAAUGGACAGAAGGGCAGAGCAA | 0.472 |
| AGUUCUUCUCGGGUCCUCCAGCACAGUGAAAUGGACAGAAGGGCAGAGCAA | 0.66 |
| AGUUCUUAGCGGGAGCUCCAGCACAGUGAAAUGGACAGAAGGGCAGAGCAA | 0.184 |
| AGUUCGUGCCGGGAGCUCCAGCACAGUGAAAUGGACAGAAGGGCAGAGCAA | 2.11 |
| AGUUCUUCUACGGAGCUCCAGCACAGUGAAAUGGACAGAAGGGCAGAGCAA | 1.84 |
| AGUUCUUCUAAGGAGCUCCAGCACAGUGAAAUGGACAGAAGGGCAGAGCAA | 0.661 |
| AGUUCUUCUAUGGAGCUCCAGCACAGUGAAAUGGACAGAAGGGCAGAGCAA | 0.953 |
| AGUUCGCGCCGGGAGCUCCAGCACAGAUAAAUGGACAGAAGGGCAGAGCAA | 1.9 |
| AGUUCGCGCCGGGAGCUCCAGCACAGACAAAUGGACAGAAGGGCAGAGCAA | 3.86 |
| AGUUCGCGCCGGGAGCUCCAGCACAGAAAAAUGGACAGAAGGGCAGAGCAA | 3.01 |
| AGUUCUUCUCGGGCACUCCAGCACAGUGAAAUGGACAGAAGGGCAGAGCAA | 0.459 |
| AGUUCUUCUCGGGCCCUCCAGCACAGUGAAAUGGACAGAAGGGCAGAGCAA | 0.406 |
| AGUUCUUCUCGGGCUCUCCAGCACAGUGAAAUGGACAGAAGGGCAGAGCAA | 0.523 |
